Test results reported in the nanobody polyreactivity screen of Harvey et al. (2022).

Test: yeast display, Sf9 membrane polyspecificity reagent, FACS + sequencing; frameworks hold sequencing errors
Outline: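 Galactose induction of a Saccharomyces cerevisiae BJ5465 synthetic nanobody display library ran 36–48 hours. The cells were then stained for 1 hour at 4 °C with 10% biotinylated, detergent-solubilized Sf9 membrane reagent, pulled down on streptavidin microbeads and FACS-sorted into low and high (top ~1%) gates on expression and reagent-binding fluorescence. Labels for polyreactivity follow the gate of origin.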

Sequence | polyreactivity (PSR sort gate)
QVQLVESGGGLVQAGGSLRLSCAASGRIVCYYDMGWSRQAHGKERELVATITFGGGSTYYADSVKGRFTISRDNAKNTVYLQMNSLKPEDTAVYYCAADSGYLGIYGDEYSSGQGTQVTVSS | low polyreactivity
QVQLVESGGGLVQAGGSLRLSCAASGRIVGYAMGWYRQAPGKERELVAAITGSTGSTYYADSVKGRFTISRDNAKNTVYLQMNSLKPEDTAVYYCATKYGRYVYYNHVTWMYYWGQGTQVTVSS | high polyreactivity
QVQLVESGGGLVQAGGSLRLSCAASGRIVHQYAMGWNRQAPGKERELVAAITTRGTSTYYADSVKGRFTISRDNAKNTVYLQMNSLKPEDTAVYYCAAKFFGSVGHVAGDYWGQGTLVTVSS | high polyreactivity
QVQLVESGGGLVQAGGSLRLSCAASGRIVRYYTMGWYRQAPGKEREFVAAITLSGGRTYYADSVKGRFTISRDNAKNTVYLQMNSLKPEDTAVYYCAKRYVWGDKRYWQGYDYWGQGTQVSVSS | high polyreactivity
QVQLVESGGGLVQAGGSLRLSCAASGRIVSKYALGWYRQAPGKERELVAAISNGGSTNYADSVKGRFTISRDNAKNTVYLQMNSRKPEDTAVYYCAAGWPARYEEGYNYWGQGTQVTVST | low polyreactivity
QVQLVESGGGLVQAGGSLRLSCAASGRIVSRYAMGCYRQAPGKERELVADISSSGGSTYYADSVKGRFTISRDNAKNTVYLQMNSMKPEDTAVYDCAVRKKRQYTGDYWGQGTQETVSS | high polyreactivity
QVQLVESGGGLVQAGGSLRLSCAASGRIVTDSAMGWYSQAPGKDREFVAAIRRSGGSTYYAGCVKGRCTISRDTANNTVYLQMNSLKPEDTAVYYCAARGATSYYIFHSWGQGTQVTVSS | high polyreactivity
QVQLVESGGGLVQAGGSLRLSCAASGRIVVGYVMGWYRQSPGKERELVADIRSRGDSTYYADSVKGRFTISRDNAKNTVYLQMNSLKPEDTAVYYCNVLGYSYWGQGTQVTVSS | high polyreactivity
QVQLVESGGGLVQAGGSLRLSCAASGRIVVYNVMGGYRQAPGKERELVAAISWGTGSTYADSVKGRFTISRDNAKNTVYIQMNSLKPEDTAVYYCAADSFIPPYDHWGQGTQVTVSS | low polyreactivity
QVQLVESGGGLVQAGGSLRLSCAASGRIVWFYTMGWYRQAPGKERELVAAISDSAGSTYYADSVKGRFTISRDNAKNTVYLQMNSLKPEDTAVYYCAADGWWQYDYWGQGTQVTVSS | low polyreactivity
QVQLVESGGGLVQAGGSLRLSCAASGRIYCGYTMGWYRPAPGKERELDATITGNGAITRYADSVKGRFTISRDNAKYTVYLQMTSLKPEDTAVYYCAADSGREPKGPFRLTYWGQGTQVTVSS | high polyreactivity
QVQLVESGGGLVQAGGSLRLSCAASGRIYDDNAMGWYRQAPGKERELVAAISSGDSTKYADSVKGRFTISRDNAKNTVYLQMNSLKPDDTAVYSCAAERNHGLVGSESVGRNDYWGPGTQVTVSS | low polyreactivity
QVQLVESGGGLVQAGGSLRLSCAASGRIYDYMAWYRQAPGKERELVAAISWRGGRTYYADSVKGRFTISRDNAKNTVYLQMNSLKPEDTAVYYCAAKTTYRYGYWGQGSQVTVSS | high polyreactivity
QVQLVESGGGLVQAGGSLRLSCAASGRIYDYYTMGWYRQAPGKERELVAAITWIGGSTYYADSVKGRFTISRDNAKNTVYLQMNSLKPEDTAVYYWNAEGTALPYRADTVGGYYYWGQGTQVTVSS | low polyreactivity
QVQLVESGGGLVQAGGSLRLSCAASGRIYGGYAMGWYRQAPGKERELVAAISSRGGSTYYADSVKGRFTISRDNAKNTVYFQMNSLKPEDTAVYYFADDGRVKGWGQGTQVTVSS | high polyreactivity
QVQLVESGGGLVQAGGSLRLSCAASGRIYGIYAMGWYRQAPGKERDLVARITGGGSTNYADSVKGRFTISRDNAKYTVYLQMNSLKPEDTAVYYCAATVRRIVGNITRYDYWGQGTQVTVSS | low polyreactivity
QVQLVESGGGLVQAGGSLRLSCAASGRIYIGNAMGWYRQAPGKERELVAAISKRGGSTYYADSVKGRFTISRDNAKNTVYLQMKSLKAEDTAVYYCIKESLYREFDYLGQGTQVTVSS | low polyreactivity
QVQLVESGGGLVQAGGSLRLSCAASGRIYNYYAMGWYIPAPGKERELVAAISSSGGRTYYADSVKGRFTISRDNAKNTVYLQMNSLKPEDTAVYYCAAYDSLRYSTYDYWGQGTQVTVSS | high polyreactivity
QVQLVESGGGLVQAGGSLRLSCAASGRIYPAYAMGWSRQAPGKERELVASIRRGGITYADSVKGRFTISRDNAKNTVYLQMNSLKPEDTAVYYCNADYRGWGYHMDYWGQGTQVTVSS | low polyreactivity
QVQLVESGGGLVQAGGSLRLSCAASGRIYPYYDMGWYRQAPGKERELVAAITSGTGTYYADSGKGRVTLSRDNAKTTVYFQMYSLKPEDTAVYYCNARRYLRGYWGQGTQVTLSS | low polyreactivity
QVQLVESGGGLVQAGGSLRLSCAASGRIYRGYAMGWYRQAPRKERELFARITSGGRTYYADSVKGRFTISRDNAMNTVYLQMISLKPEDTAVYYCATVGGGYDERHNYWGQWTQVTVSS | high polyreactivity
QVQLVESGGGLVQAGGSLRLSCAASGRIYRYYAMGWYRQAPGKEREFVAAISYRGASTFYADSVKGRFTISRDNAKNTVYLQMNSLKPEDTAVYYCATDTRIRYQGNPYDYWGQGTQVTVSS | high polyreactivity

Sequence | polyreactivity (PSR sort gate)
QVQLVESGGGLVQAGGSLRLSCAASGRIYSYYAMGWYRQAPGKERELVAGIRSGGSTNYADSVKGRFTISRDNAKNTVYLQMNSLKPEDTAVYYCAARWTRWTSKRFEYWGQGTQVTVSS | high polyreactivity
QVQLVESGGGLVQAGGSLRLSCAASGRIYTHYAMGWYRQAPGKERELVAAISYRGGSTYYADSVKGRFTISRDNAKNTVYLQMNRLKPEATAVYYCNKYRFVYSLDDYWGQGIQVTVSS | high polyreactivity
QVQLVESGGGLVQAGGSLRLSCAASGRIYVIYGMGWYRQAPGKERELVATISWSGSSTSYADSVKGRFTISRDNAKNTVYLQMNSLKHEDTAVYYCNAPVQSETFDYWGQGTQVTVSS | high polyreactivity
QVQLVESGGGLVQAGGSLRLSCAASGRIYVNAMGWYRQAPGKERELVAAIRSGGSTNYADSVKGRFTISRDNAKNTVYLQMNSLKPEDTAVYYCNARRRDYRHWYDYWGQGTQVTVSS | high polyreactivity
QVQLVESGGGLVQAGGSLRLSCAASGRIYWNDMGWYRQAPGKERELVAAISWGGDRTYYADSVKGRFTISRDNAKNSFYLQMNSLKPEDTAVYYFNAPGYLTYDHSYDYWGQGTQVTVSS | low polyreactivity
QVQLVESGGGLVQAGGSLRLSCAASGRIYWNTMGWYIQAPGKERELVASISTGGGRTYYADSVKGRFTISRDNAKNTVYLQMNSLKPEDTAVYYCAVRSYGHGFDYWGQGTQVTVSS | high polyreactivity
QVQLVESGGGLVQAGGSLRLSCAASGRIYWNTMGWYRQAPWKEREMVASISTGCGRTYYADSVKGRFTISRDNAKNTVYLQMHSLKPEDTSVYYCNAVRTVWYRYEYGYWGQGTQVTVSS | high polyreactivity
QVQLVESGGGLVQAGGSLRLSCAASGRIYWSYDMGWNRQAPVKERELVASITSDGSTNYADSVKGRFTISRDNAKNTVYLQMNSLKPEDTAVYYCAARPYKYDPFAQGDGGKYDYWGQGTQVTVSS | low polyreactivity
QVQLVESGGGLVQAGGSLRLSCAASGRIYYQYAMGWYRQAPGKERELVAAITRGGNTYYADSVKGRFTISRDNAKNTVYLQMNSLKPEDTAVYYCNARWHTTGYRYDYWGQGTQVTVSS | high polyreactivity
QVQLVESGGGLVQAGGSLRLSCAASGRLFYSYAMGWYRQAPGKERELVAAIGRGGGTTYADSVKGRFTISRDNAKNTVYLQMNSLKPEDTAVYYCAADWHSTPRHTMDYWGQGTQVTVSS | low polyreactivity
QVQLVESGGGLVQAGGSLRLSCAASGRNFAGYAMLWYRQAPGKERELVATISSGGSTYYADSVKGRFTISRDNAKNTVYLQKNSLKPEDTAVYYCAAEYGTRQYSSYYKLFNYWGQGTQVTVSS | low polyreactivity
QVQLVESGGGLVQAGGSLRLSCAASGRNFCVYAMGWYRHDHGKERELVAAISYDDGDTFYADSVKGRFTISRDNAKNTVYLQMNSLKPDDTAVYYCDAEGYSYIQSDLDYCGQGTQVTVSS | high polyreactivity
QVQLVESGGGLVQAGGSLRLSCAASGRNFGRNGMGWYRQAPGKERELVAAISIGDSTTYADSVKGRFTISRDNAKNTVYLQMNSLKPEDTAVFYCAAELERYPVWEYRGKYDYWGQGTQVTVSS | low polyreactivity
QVQLVESGGGLVQAGGSLRLSCAASGRNFLPNAMGWSRPAPGKERELVAAITSGGGSTYYADSVKGRFTISRDKAKNTVYLQMNSLKPEDTAVYYCAKQPYRGKYYYWGQGTQVTVSS | high polyreactivity
QVQLVESGGGLVQAGGSLRLSCAASGRNFPGYARGWYRQAPGKEGELVAGINWSSGSTYYADSVKGRFTISRDNAKNTVYLQMNSLKPEDTAVYYCNALGYWRSTVHYVVGEVDYWGQGTQVTVSS | low polyreactivity
QVQLVESGGGLVQAGGSLRLSCAASGRNFPYYAMGWYRQAPGKERELVAAISSSGGRTYYADSVKGRFTISRDNAKNTVYLQMNSLIPEDTAVYYCNVDAWYPYQGFLVGYYYWGQGTQVTVSS | low polyreactivity
QVQLVESGGGLVQAGGSLRLSCAASGRNFRRYALGLYRQAPGKERELVAAISSGGSTYYADSVKGRFTISRDNAKNTVYLQMNSLKPEDTAVYYCNAKVGAYLNYGYWGQGTQVTVSS | low polyreactivity
QVQLVESGGGLVQAGGSLRLSCAASGRNFSFYAMGWYRQAPGQERELVAAITYTDGSTYADSVKGRFTISRDNAKNTVYLQMNSLKPDDTAVYYFATRYRWTPYDYWGQGTQVTVSS | low polyreactivity
QVQLVESGGGLVQAGGSLRLSCAASGRNFSNYAMGWYRQAPGKERELVAAIRATGTTTYYADSVKGRFTISRDNAKNTVYLQMNSLKPDDTAVYYCAARGSRYRSSGYDYWGQGTQVTVSS | high polyreactivity
QVQLVESGGGLVQAGGSLRLSCAASGRNFWLNAMGWYRPEPGKERELVATISRGGSTNYADSVKGRFTISRDNAKNTVYLQMNSLKPEDTAVYYCAARPYSYYWNSELDYWGQGTQVTVSS | high polyreactivity
QVQLVESGGGLVQAGGSLRLSCAASGRNFYGYAMGWYRQAPGKERELVAAISWSGGSTYYADSVKGRFTISRDNAKNTVYLQMNSLKPEDTAVYYCARRYRGGYKYDYWGQGTQVTVSS | high polyreactivity
